± gives the uncertainty stated by the source.

The results in this text go back to the supplement of paper PMC7877785.

A short description of this data set: self-splicing fitness, log relative to wild type (ln ratio); higher = more splicing; Tetrahymena group I intron in knt gene, E. coli kanamycin selection, DiMSum; sequences stand for … in CUCUCU…GGAGGGAAAAGUUAUCAGGCAUGCACCUGGUAGCUAGUCUUUAAACCAAUAGAUUGCAUCGGUUUAAAAGGCAAGACCGUCAAAUUGCGGGAAAGGGGUCAACAGCCGUUCAGUACCAAGUCUCAGGGGAAACUUUGAGAUGGCCUUGCAAAGGGUAUGGUAAUAAGCUGACGGACAUGGUCCUAACCACGCAGCCAAGUCCUAAGUCAACAGAUCUUCUGUUGAUAUGGAUGCAGUUCACAGACUAAAUGUCGGUCGGGGAAGAUGUAUUCUUCUCAUAAGAUAUAGUCGGACCUCUCCUUAAUGGGAGCUAGCGGAUGAAGUGAUGCAACACUGGAGCCGCUGGGAACUAAUUUGUAUGCGAAAGUAUAUUGAUUAGUUUUGGAGUACUCGUGGUCG
In short, it runs like this: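 Fitness was computed with DiMSum as the error-weighted combination of replicate fold changes, kanamycin versus none, each normalised to wild type. The library randomised all eight intron nucleotides of the P1ex region, with the intron placed in the knt kanamycin-resistance gene on pET-22b(+) in E. coli BL21(DE3). Six replicate transformations were grown overnight at 37°C or 30°C on LB agar with or without 25 μg/mL kanamycin, plus 100 μg/mL carbenicillin, 50 μM IPTG and 0.2% rhamnose. Pooled colonies were amplicon-sequenced on an Illumina HiSeq 2500.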

As for CUGCAGCAAUAUUACGGUGU, the “self-splicing fitness (ln)” value is -4.57 ± 0.36 (30 °C) and -2.37 ± 0.24 (37 °C).
The matching figures for CUGCAGCAAUAUUACGUAGG: -0.76 ± 0.057 and -0.512 ± 0.07.
In the same order, the values of CUGCAGCAAUAUUACGUGAA are -4.94 ± 0.45 and -3.45 ± 0.23.
For CUGCAGCAAUAUUACGUGCG, the “self-splicing fitness (ln)” value is -1.67 ± 0.093 (30 °C) and -1.26 ± 0.11 (37 °C).
In the case of CUGCAGCAAUAUUACGUUAA, the “self-splicing fitness (ln)” value by setting is: (30 °C) -3.5 ± 0.24; (37 °C) -3.02 ± 0.27.
As for CUGCAGCAAUAUUACGUUGC, the “self-splicing fitness (ln)” value (30 °C) is -3.71 ± 0.26 and the “self-splicing fitness (ln)” value (37 °C) was -2.18 ± 0.29.
In the same order, the values of CUGGAGCAAUAUUACGAACA are -2.85 ± 0.42 and -1.64 ± 0.48.
For CUGGAGCAAUAUUACGACUC, the “self-splicing fitness (ln)” value (37 °C) was -2.39 ± 0.41.
CUGGAGCAAUAUUACGAGAC: the “self-splicing fitness (ln)” value (37 °C) is -0.723 ± 0.29.
For CUGGAGCAAUAUUACGAGAU, the “self-splicing fitness (ln)” value (30 °C) is -4.02 ± 0.39 and the “self-splicing fitness (ln)” value (37 °C) is -2.49 ± 0.44.
The matching figures for CUGGAGCAAUAUUACGAGUA: -2.08 ± 0.26 and -3.21 ± 0.35.
The matching figures for CUGGAGCAAUAUUACGCAGC: -3.72 ± 0.49 and -0.0349 ± 0.47.
Turning to CUGGAGCAAUAUUACGCCGC, the “self-splicing fitness (ln)” value (37 °C) was -1.1 ± 0.38.
Take CUGGAGCAAUAUUACGCGAU: the “self-splicing fitness (ln)” value (30 °C) is -2.76 ± 0.16 and the “self-splicing fitness (ln)” value (37 °C) was -1.9 ± 0.15.
Turning to CUGGAGCAAUAUUACGCUAG, the “self-splicing fitness (ln)” value (37 °C) is -2.79 ± 0.36.
As for CUGGAGCAAUAUUACGGCCG, under “30 °C”, the “self-splicing fitness (ln)” value is -0.999 ± 0.27.
In the case of CUGGAGCAAUAUUACGGGGU, the “self-splicing fitness (ln)” value runs as follows: (30 °C) -3.12 ± 0.31; (37 °C) -1.53 ± 0.27.
In the same order, the values of CUGGAGCAAUAUUACGGGUU are -2.29 ± 0.18 and -2.91 ± 0.28.
The matching figures for CUGGAGCAAUAUUACGGUGA: -2.75 ± 0.24 and -3.22 ± 0.35.
The matching figures for CUGGAGCAAUAUUACGUAUG: -1.78 ± 0.12 and -0.437 ± 0.14.
In the case of CUGGAGCAAUAUUACGUCAA, the “self-splicing fitness (ln)” value runs as follows: (30 °C) -2.69 ± 0.44; (37 °C) -1.19 ± 0.47.
As for CUGGAGCAAUAUUACGUCGG, the “self-splicing fitness (ln)” value (30 °C) is -3.08 ± 0.26.
With CUGGAGCAAUAUUACGUCUA, the “self-splicing fitness (ln)” value (30 °C) is -1.72 ± 0.3 and the “self-splicing fitness (ln)” value (37 °C) was -0.483 ± 0.23.
Take CUGGAGCAAUAUUACGUUAA: the “self-splicing fitness (ln)” value reads like this: (30 °C) -3.18 ± 0.37; (37 °C) -2.05 ± 0.24.
As to CUGGAGCAAUAUUACGUUAC, the “self-splicing fitness (ln)” value reads like this: (30 °C) -2.8 ± 0.23; (37 °C) -1.42 ± 0.41.
The matching figures for CUGGAGCAAUAUUACGUUCG: -4.29 ± 0.3 and -1.77 ± 0.19.
With CUGGAGCAAUAUUACGUUUA, the “self-splicing fitness (ln)” value (30 °C) is -3.17 ± 0.18 and the “self-splicing fitness (ln)” value (37 °C) was -3.28 ± 0.22.
With CUGGAGCAAUAUUACGUUUU, where the note is “37 °C”, the “self-splicing fitness (ln)” value was -3.48 ± 0.42.
The same measure, in the same setting: then CUGUAGCAAUAUUACGAAUU, with -2.7 ± 0.3.
For the sequence CUGUAGCAAUAUUACGACGC, the “self-splicing fitness (ln)” value (30 °C) is -2.3 ± 0.35 and the “self-splicing fitness (ln)” value (37 °C) is -2.79 ± 0.27.
Regarding CUGUAGCAAUAUUACGCACU, the “self-splicing fitness (ln)” value is, setting by setting: (30 °C) -1.84 ± 0.37; (37 °C) -2.25 ± 0.31.
Turning to CUGUAGCAAUAUUACGCGGU, the “self-splicing fitness (ln)” value (30 °C) is -3.17 ± 0.23 and the “self-splicing fitness (ln)” value (37 °C) was -2.33 ± 0.24.
On to CUGUAGCAAUAUUACGCGUC, for which the “self-splicing fitness (ln)” value (37 °C) is -2.41 ± 0.45.
With CUGUAGCAAUAUUACGCGUU, the “self-splicing fitness (ln)” value (30 °C) was -4.19 ± 0.3 and the “self-splicing fitness (ln)” value (37 °C) was -2.26 ± 0.18.
On to CUGUAGCAAUAUUACGCUCU, for which the “self-splicing fitness (ln)” value (30 °C) was -3.47 ± 0.39.
With CUGUAGCAAUAUUACGCUGA, the “self-splicing fitness (ln)” value was -1.34 ± 0.16 (30 °C) and -3.78 ± 0.29 (37 °C).
For CUGUAGCAAUAUUACGCUGG, for the setting “37 °C”, the “self-splicing fitness (ln)” value was -0.992 ± 0.34.
Consider CUGUAGCAAUAUUACGGAGG, for which the “self-splicing fitness (ln)” value (30 °C) is -4.1 ± 0.27 and the “self-splicing fitness (ln)” value (37 °C) was -2.64 ± 0.26.
In the same order, the values of CUGUAGCAAUAUUACGGAUG are -3.23 ± 0.27 and -0.812 ± 0.18.
As to CUGUAGCAAUAUUACGGUAC, the “self-splicing fitness (ln)” value (37 °C) was -2.59 ± 0.28.
For the sequence CUGUAGCAAUAUUACGGUGG, the “self-splicing fitness (ln)” value runs as follows: (30 °C) -3.05 ± 0.14; (37 °C) -1.49 ± 0.11.
As for CUGUAGCAAUAUUACGUAGC, the “self-splicing fitness (ln)” value is -5.54 ± 0.36 (30 °C) and -2.93 ± 0.32 (37 °C).
Turning to CUGUAGCAAUAUUACGUAUA, the “self-splicing fitness (ln)” value was -3.03 ± 0.4 (30 °C) and -2.67 ± 0.28 (37 °C).
As for CUGUAGCAAUAUUACGUCAC, for the setting “30 °C”, the “self-splicing fitness (ln)” value was -3.21 ± 0.24.
CUGUAGCAAUAUUACGUCAU: the “self-splicing fitness (ln)” value is -4.07 ± 0.3 (30 °C) and -3.14 ± 0.24 (37 °C).
As for CUGUAGCAAUAUUACGUGUU, the “self-splicing fitness (ln)” value runs as follows: (30 °C) -4.29 ± 0.17; (37 °C) -0.79 ± 0.13.
In the same order, the values of CUUAAGCAAUAUUACGAACG are -0.163 ± 0.11 and 0.187 ± 0.14.
For CUUAAGCAAUAUUACGACCU, the “self-splicing fitness (ln)” value (30 °C) is -1.75 ± 0.39.
As for CUUAAGCAAUAUUACGCAUU, the “self-splicing fitness (ln)” value is -3.82 ± 0.2 (30 °C) and -1.92 ± 0.17 (37 °C).
CUUAAGCAAUAUUACGCGAG: the “self-splicing fitness (ln)” value runs as follows: (30 °C) -4.13 ± 0.34; (37 °C) -3.57 ± 0.33.
CUUAAGCAAUAUUACGCUCA: the “self-splicing fitness (ln)” value reads like this: (30 °C) -2.78 ± 0.22; (37 °C) -2.01 ± 0.5.
On to CUUAAGCAAUAUUACGCUUG, for which the “self-splicing fitness (ln)” value (30 °C) is -4.19 ± 0.39 and the “self-splicing fitness (ln)” value (37 °C) is -2.78 ± 0.31.
As for CUUAAGCAAUAUUACGCUUU, the “self-splicing fitness (ln)” value is -3.13 ± 0.11 (30 °C) and -2.26 ± 0.15 (37 °C).
CUUAAGCAAUAUUACGGACC: where the note is “37 °C”, the “self-splicing fitness (ln)” value is -0.536 ± 0.36.
With CUUAAGCAAUAUUACGGCCA, the “self-splicing fitness (ln)” value (30 °C) was -2.95 ± 0.44.
CUUAAGCAAUAUUACGGUUC: the “self-splicing fitness (ln)” value by setting is: (30 °C) -4.11 ± 0.19; (37 °C) -3.1 ± 0.26.
The matching figures for CUUAAGCAAUAUUACGUGAU: -2.63 ± 0.092 and -0.627 ± 0.093.
With CUUAAGCAAUAUUACGUUGA, where the note is “37 °C”, the “self-splicing fitness (ln)” value is -2.78 ± 0.29.
Regarding CUUCAGCAAUAUUACGAACC, the “self-splicing fitness (ln)” value by setting is: (30 °C) -1.67 ± 0.41; (37 °C) -1.18 ± 0.35.
In the same order, the values of CUUCAGCAAUAUUACGAAUC are -1.04 ± 0.2 and -1.06 ± 0.19.
In the same order, the values of CUUCAGCAAUAUUACGACAA are -2.42 ± 0.21 and -2.52 ± 0.31.
As for CUUCAGCAAUAUUACGACGG, the “self-splicing fitness (ln)” value is -2.16 ± 0.13 (30 °C) and -0.57 ± 0.23 (37 °C).
For CUUCAGCAAUAUUACGAGCA, the “self-splicing fitness (ln)” value (37 °C) was -2.16 ± 0.28.
For CUUCAGCAAUAUUACGAUCU, the “self-splicing fitness (ln)” value runs as follows: (30 °C) -2.86 ± 0.39; (37 °C) -2.88 ± 0.35.
Take CUUCAGCAAUAUUACGAUUA: the “self-splicing fitness (ln)” value runs as follows: (30 °C) -3.05 ± 0.41; (37 °C) -1.55 ± 0.22.
As to CUUCAGCAAUAUUACGCCUU, the “self-splicing fitness (ln)” value (30 °C) was -2.35 ± 0.15 and the “self-splicing fitness (ln)” value (37 °C) is -3.25 ± 0.25.
In the same order, the values of CUUCAGCAAUAUUACGCGCC are -3.28 ± 0.3 and -1.92 ± 0.24.
In the case of CUUCAGCAAUAUUACGCGCU, the “self-splicing fitness (ln)” value (37 °C) is -1.96 ± 0.46.
Take CUUCAGCAAUAUUACGCGGC: the “self-splicing fitness (ln)” value is, setting by setting: (30 °C) -3.24 ± 0.36; (37 °C) -1.01 ± 0.19.
In the same order, the values of CUUCAGCAAUAUUACGCGUU are -2.33 ± 0.12 and -2.7 ± 0.21.
The matching figures for CUUCAGCAAUAUUACGCUAU: -3.33 ± 0.37 and -1.99 ± 0.25.
The matching figures for CUUCAGCAAUAUUACGCUGG: -3.83 ± 0.21 and -2.15 ± 0.14.
Take CUUCAGCAAUAUUACGGAAA: the “self-splicing fitness (ln)” value is, setting by setting: (30 °C) -1.17 ± 0.18; (37 °C) -1.16 ± 0.15.
With CUUCAGCAAUAUUACGGAAG, the “self-splicing fitness (ln)” value (30 °C) is -4.18 ± 0.28 and the “self-splicing fitness (ln)” value (37 °C) is -2.4 ± 0.2.
The matching figures for CUUCAGCAAUAUUACGGAUG: -1.48 ± 0.069 and -0.191 ± 0.1.
The matching figures for CUUCAGCAAUAUUACGGCAG: -0.556 ± 0.12 and -0.351 ± 0.14.
The matching figures for CUUCAGCAAUAUUACGGCGU: -4.44 ± 0.24 and -1.8 ± 0.17.
For the sequence CUUCAGCAAUAUUACGGCUC, the “self-splicing fitness (ln)” value is -3.8 ± 0.37 (30 °C) and -2.51 ± 0.35 (37 °C).
Turning to CUUCAGCAAUAUUACGGCUG, the “self-splicing fitness (ln)” value runs as follows: (30 °C) -3.75 ± 0.34; (37 °C) -2.65 ± 0.47.
The matching figures for CUUCAGCAAUAUUACGGUAG: -1.94 ± 0.12 and -0.92 ± 0.14.
For CUUCAGCAAUAUUACGGUUA, the “self-splicing fitness (ln)” value (30 °C) is -1.58 ± 0.19 and the “self-splicing fitness (ln)” value (37 °C) was -1.08 ± 0.2.
